Target: integrin molecules on human cells (human)
Assay: cell-based or functional assay

B1: RGD-Hoc, P18056 1-376 (protein)
chain: CDCRGDCFCSAMTFTVDITPKTPTGVIDETKQFTATPSGQTGGGTITYAWSVDNVPQDGAEATFSYVLKGPAGQKTIKVVATNTLSEGGPETAEATTTITVKNKTQTTTLAVTPASPAAGVIGTPVQFTAALASQPDGASATYQWYVDDSQVGGETNSTFSYTPTTSGVKRIKCVAQVTATDYDALSVTSNEVSLTVNKKTMNPQVTLTPPSINVQQDASATFTANVTGAPEEAQITYSWKKDSSPVEGSTNVYTVDTSSVGSQTIEVTATVTAADYNPVTVTKTGNVTVTAKVAPEPEGELPYVHPLPHRSSAYIWCGWWVMDEIQKMTEEGKDWKTDDPDSKYYLHRYTLQKMMKDYPEVDVQESRNGYIIHKTALETGIIYTYPKLAAALEHHHHHH
luciferase activity: 5 fold

Reference: US20220090139A1
